What follows are sequences tested against AP heterodimer (IAP/PLAP) on LoVo cells (human) (UniProt P09923+P05187) (assay: flow cytometry). Settings: 4 C, apparent Kd, PBS pH 7.4 (about 137 mM NaCl) with 5 mM MgCl2, 4.5 g/L glucose, 1 mg/mL BSA, 0.1 mg/mL herring sperm DNA, 30 min at 4 C.
AP heterodimer (IAP/PLAP) on LoVo cells (human), sequence (P09923 20-503, chain 1 of 2): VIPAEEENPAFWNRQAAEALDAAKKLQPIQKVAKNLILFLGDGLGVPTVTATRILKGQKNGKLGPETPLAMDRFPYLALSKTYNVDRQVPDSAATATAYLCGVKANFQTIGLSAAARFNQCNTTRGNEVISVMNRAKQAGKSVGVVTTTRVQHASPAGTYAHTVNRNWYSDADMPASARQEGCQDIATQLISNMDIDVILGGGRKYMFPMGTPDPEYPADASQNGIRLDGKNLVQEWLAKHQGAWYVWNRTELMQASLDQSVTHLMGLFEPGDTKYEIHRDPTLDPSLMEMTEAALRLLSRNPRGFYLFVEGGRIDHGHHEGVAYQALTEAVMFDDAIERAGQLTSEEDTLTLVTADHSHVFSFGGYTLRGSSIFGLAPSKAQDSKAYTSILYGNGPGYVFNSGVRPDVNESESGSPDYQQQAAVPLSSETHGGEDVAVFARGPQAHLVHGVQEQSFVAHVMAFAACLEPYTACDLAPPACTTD
AP heterodimer (IAP/PLAP) on LoVo cells (human), sequence (P05187 23-506, chain 2 of 2): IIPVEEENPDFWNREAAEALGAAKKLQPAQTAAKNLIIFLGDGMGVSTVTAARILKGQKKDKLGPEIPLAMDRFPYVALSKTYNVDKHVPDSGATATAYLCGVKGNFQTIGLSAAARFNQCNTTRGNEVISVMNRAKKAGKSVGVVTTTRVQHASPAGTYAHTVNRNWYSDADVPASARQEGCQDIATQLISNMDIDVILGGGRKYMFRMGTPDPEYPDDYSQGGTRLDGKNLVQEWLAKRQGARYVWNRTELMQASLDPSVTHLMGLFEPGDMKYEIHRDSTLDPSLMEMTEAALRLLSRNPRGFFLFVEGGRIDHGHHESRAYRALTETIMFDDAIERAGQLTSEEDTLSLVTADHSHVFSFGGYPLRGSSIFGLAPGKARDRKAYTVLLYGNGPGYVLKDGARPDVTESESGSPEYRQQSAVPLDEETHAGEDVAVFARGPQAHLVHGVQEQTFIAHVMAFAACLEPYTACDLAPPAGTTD

“TAAAAAATAGGGGTCGGTGTGGGTGGTTATGATTGGCTTTTTTA [BG4]” and TAGGGGTCGGTGTGGGTGGTTATGATTGGC [BG2c] are within 1.5-fold of each other in Kd: 11.5 nM for the first, 9.3 nM for the second.

Sequence “CAAGGAATAGGGGTCGGTGTGGGTGGTTATGATTGGCTTCCTTG [BG2]” has a Kd of 2.5 nM.
